Values of other authors as cited in article PMC3499705.
Like-named read-outs stand apart in the source and are kept apart here.

Experiments:
[1] = biological target: VPAC1 receptor N-terminal ectodomain (Homo sapiens) (UniProt P32241); assay: intrinsic tryptophan fluorescence
[2] = biological target: VPAC1 receptor N-terminal ectodomain (Homo sapiens) (UniProt P32241)
[3] = biological target: PACAP27 PACAP27 (Homo sapiens) (UniProt P18509); assay: intrinsic tryptophan fluorescence
[4] = biological target: Secretin (Homo sapiens) (UniProt P09683); assay: intrinsic tryptophan fluorescence
[5] = biological target: PHM PHM (Homo sapiens) (UniProt P01282); assay: intrinsic tryptophan fluorescence
[6] = biological target: GRF (Homo sapiens) (UniProt P01286); assay: intrinsic tryptophan fluorescence
[7] = biological target: VIP2-28 2-28 (Homo sapiens) (UniProt P01282); assay: intrinsic tryptophan fluorescence
[8] = biological target: Helodermin (Heloderma suspectum) (UniProt P04204); assay: intrinsic tryptophan fluorescence
[9] = biological target: VIP6-28 6-28 (Homo sapiens) (UniProt P01282); assay: intrinsic tryptophan fluorescence
[10] = biological target: VIP (Homo sapiens) (UniProt P01282)

For GRF (from UniProt P01286), the Kd [1] is given as 10100 nM.
For PACAP27 PACAP27 (from UniProt P18509), the Kd [1] is given as 570 nM.
For PHM PHM (from UniProt P01282), the Kd [1] is given as 8000 nM.
For VIP2-28 2-28 (from UniProt P01282), the Kd [1] is listed as 850 nM.
In the case of VIP (from UniProt P01282), the Kd [2] is given as 540 nM.
In the case of “VPAC1 receptor 31-144 (from UniProt P32241)”, the Kd [3] is given as 570 nM, the Kd [4] is given as 16000 nM and the Kd [5] is given as 8000 nM. For the same substance, the Kd [6] was 10100 nM, the Kd [7] was 850 nM and the Kd [8] was 2540 nM. The Kd [9] was 850 nM and the Kd [10] was 540 nM.
For helodermin (from UniProt P04204), the Kd [1] is listed as 2540 nM.
For secretin (from UniProt P09683), the Kd [1] is given as 16000 nM.
